Results from paper PMC2721222 (Cancer research, 2009).

T1: His-tagged MUC1 cytoplasmic domain (UniProt P15941 1182-1255)
T1 sequence (looked up): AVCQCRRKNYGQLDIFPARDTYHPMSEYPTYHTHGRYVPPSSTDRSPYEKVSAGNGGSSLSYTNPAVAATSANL


How the values were obtained:
[1] = target: MUC1-CD cytoplasmic domain (Homo sapiens) (UniProt P15941); details: cited from earlier work
[2] = target: T1, His-tagged MUC1 cytoplasmic domain; test: SPR

| Molecule | Kd [1] [nM] | Kd [2] [nM] |
| --- | --- | --- |
| MUC1-CD cytoplasmic domain (from UniProt P15941) | 33 |  |
| CQCRRKNYGQLDIFP (poly D-arginine transduction domain (D-residues)) [GO-201] |  | 30 |
